The test system of the data set is Escherichia coli TOP10. The data set can be described thus: shrunken log2 fold change of peptide-encoding DNA abundance (4.5 h post-induction vs induction); higher = less antimicrobial activity (less host growth inhibition). To be noted: time post-induction: 4.5 h; library: site-saturation at positions 5, 18, 19, 20.
For the sequence RRIRRRPPRLPRPRPRPRPVPRP, the “shrunken log2 fold change” value is 0.882.
For RRIRLRPPRLPRPRPRPELNPRP the value was 0.145; for RRIRTRPPRLPRPRPRPVVWPRP, 0.617; for RRIRDRPPRLPRPRPRPQQIPRP, -0.148.
The figure for RRIRERPPRLPRPRPRPMLMPRP is -0.142.
For RRIRWRPPRLPRPRPRPRQKPRP the value was 0.0761; for RRIRMRPPRLPRPRPRPGPNPRP, 0.641; for RRIRNRPPRLPRPRPRPYDHPRP, -0.219.
For the sequence RRIRDRPPRLPRPRPRPAIIPRP, the “shrunken log2 fold change” value turned out to be 0.0892.
For RRIRQRPPRLPRPRPRPFATPRP the value was 0.275.
The figure for RRIRLRPPRLPRPRPRPRSSPRP is -0.277.
The figure for RRIRNRPPRLPRPRPRPEKNPRP is 0.907.
For the sequence RRIRIRPPRLPRPRPRPNMNPRP, the “shrunken log2 fold change” value was -0.773.
RRIRGRPPRLPRPRPRPYGQPRP: the “shrunken log2 fold change” value worked out at 0.0682.
Take RRIRSRPPRLPRPRPRPIVIPRP: the “shrunken log2 fold change” value is -0.872.
For RRIRMRPPRLPRPRPRPVVIPRP the value was -0.174; for RRIRHRPPRLPRPRPRPAGFPRP, -0.207; for RRIRSRPPRLPRPRPRPFDCPRP, -0.277.
RRIRKRPPRLPRPRPRPTKLPRP: the “shrunken log2 fold change” value was found to be 0.246.
The figure for RRIRARPPRLPRPRPRPRNGPRP is 0.566; for RRIRYRPPRLPRPRPRPDRFPRP it is -0.411; for RRIRARPPRLPRPRPRPDMGPRP it is -0.0014.
As to RRIRSRPPRLPRPRPRPDGVPRP, the “shrunken log2 fold change” value is -0.115.
For RRIRKRPPRLPRPRPRPYHHPRP the value was -0.247; for RRIRPRPPRLPRPRPRPPQAPRP, 0.335.
Take RRIRNRPPRLPRPRPRPCATPRP: the “shrunken log2 fold change” value was -0.0524.
RRIRHRPPRLPRPRPRPLVIPRP: the “shrunken log2 fold change” value was -0.343.
Turning to RRIRTRPPRLPRPRPRPCHYPRP, the “shrunken log2 fold change” value is -0.253.
For RRIRGRPPRLPRPRPRPGRNPRP, the “shrunken log2 fold change” value amounted to 0.307.
The figure for RRIRARPPRLPRPRPRPKAMPRP is 0.00028; for RRIRWRPPRLPRPRPRPKRPPRP it is 0.873; for RRIRARPPRLPRPRPRPFCVPRP it is 0.19.
For RRIRARPPRLPRPRPRPQIKPRP, the “shrunken log2 fold change” value was found to be 0.048.
For RRIRFRPPRLPRPRPRPPPIPRP the value was 1.02; for RRIRYRPPRLPRPRPRPTVPPRP, -0.382; for RRIRTRPPRLPRPRPRPQLKPRP, 0.0828.
Consider RRIRFRPPRLPRPRPRPNNQPRP, for which the “shrunken log2 fold change” value is -0.559.
The figure for RRIRHRPPRLPRPRPRPAILPRP is -0.171; for RRIRYRPPRLPRPRPRPQESPRP it is -0.0191; for RRIRDRPPRLPRPRPRPQIHPRP it is -0.145.
The figure for RRIRRRPPRLPRPRPRPSKTPRP is -0.0865; for RRIRVRPPRLPRPRPRPSMMPRP it is -0.888.
The figure for RRIRYRPPRLPRPRPRPWWMPRP is -0.452.
With RRIRMRPPRLPRPRPRPMLSPRP, the “shrunken log2 fold change” value was 0.0117.
For RRIRYRPPRLPRPRPRPSEKPRP the value was -0.116; for RRIRDRPPRLPRPRPRPQRRPRP, 0.255.
The figure for RRIRSRPPRLPRPRPRPVTGPRP is 0.255; for RRIRMRPPRLPRPRPRPTPSPRP it is 1.18.
For RRIRWRPPRLPRPRPRPKHAPRP, the “shrunken log2 fold change” value worked out at 0.222.
The figure for RRIRIRPPRLPRPRPRPFRGPRP is -0.0233; for RRIRSRPPRLPRPRPRPFILPRP it is -0.695; for RRIRPRPPRLPRPRPRPMKDPRP it is -0.313.
Take RRIRGRPPRLPRPRPRPFKEPRP: the “shrunken log2 fold change” value is -0.0428.
For RRIRIRPPRLPRPRPRPCMIPRP the value was -0.502.
For RRIRTRPPRLPRPRPRPPYSPRP the value was -0.135.
RRIRQRPPRLPRPRPRPCCFPRP: the “shrunken log2 fold change” value came to 0.0639.
For RRIRFRPPRLPRPRPRPPYDPRP, the “shrunken log2 fold change” value was -0.49.
For RRIRPRPPRLPRPRPRPDSRPRP the value was 0.0317; for RRIRKRPPRLPRPRPRPSKLPRP, 0.0104; for RRIRERPPRLPRPRPRPYDCPRP, -0.0948.
The figure for RRIRTRPPRLPRPRPRPVTNPRP is -0.0277; for RRIRSRPPRLPRPRPRPNEDPRP it is -0.0395; for RRIRYRPPRLPRPRPRPYMMPRP it is -0.337.
For RRIRARPPRLPRPRPRPDQWPRP the value was 0.493; for RRIRPRPPRLPRPRPRPQPLPRP, 0.16.
As to RRIRPRPPRLPRPRPRPMPTPRP, the “shrunken log2 fold change” value came to 0.22.
For RRIRARPPRLPRPRPRPFVCPRP the value was -0.476; for RRIRWRPPRLPRPRPRPPMMPRP, 0.203; for RRIRGRPPRLPRPRPRPFPMPRP, 0.533.
For RRIRHRPPRLPRPRPRPETQPRP the value was -0.137.
For RRIRQRPPRLPRPRPRPGFGPRP the value was 0.245; for RRIRGRPPRLPRPRPRPNVIPRP, 0.211.
In the case of RRIRFRPPRLPRPRPRPVAYPRP, the “shrunken log2 fold change” value was -0.19.
In the case of RRIRTRPPRLPRPRPRPNIIPRP, the “shrunken log2 fold change” value was -1.01.
The figure for RRIRTRPPRLPRPRPRPQSDPRP is -0.0398; for RRIRIRPPRLPRPRPRPGIQPRP it is -0.0834.
The figure for RRIRPRPPRLPRPRPRPVPMPRP is 0.0911.
The figure for RRIRMRPPRLPRPRPRPVCSPRP is -0.0933; for RRIRERPPRLPRPRPRPNLYPRP it is -0.022; for RRIRIRPPRLPRPRPRPRIHPRP it is -0.287.
As to RRIRGRPPRLPRPRPRPLYMPRP, the “shrunken log2 fold change” value is 0.185.
For RRIRCRPPRLPRPRPRPVSRPRP the value was 0.344.
Consider RRIRQRPPRLPRPRPRPQCAPRP, for which the “shrunken log2 fold change” value was -0.183.
For RRIRIRPPRLPRPRPRPCPDPRP the value was -0.127; for RRIRFRPPRLPRPRPRPFMVPRP, -0.654; for RRIRTRPPRLPRPRPRPHTNPRP, 0.0124.
For RRIRWRPPRLPRPRPRPGHCPRP the value was -0.101; for RRIRGRPPRLPRPRPRPIQQPRP, 0.0149.
The figure for RRIRCRPPRLPRPRPRPYPMPRP is -0.424; for RRIRARPPRLPRPRPRPSELPRP it is 0.22; for RRIRERPPRLPRPRPRPPCTPRP it is 0.0136.
Regarding RRIRARPPRLPRPRPRPKDEPRP, the “shrunken log2 fold change” value came to 0.687.
The figure for RRIRWRPPRLPRPRPRPANVPRP is -0.624; for RRIRFRPPRLPRPRPRPAARPRP it is 0.192; for RRIRLRPPRLPRPRPRPLQLPRP it is 0.267.
The figure for RRIRCRPPRLPRPRPRPDTLPRP is -0.96; for RRIRRRPPRLPRPRPRPALGPRP it is 0.269; for RRIRMRPPRLPRPRPRPDPDPRP it is 0.634.
Consider RRIRMRPPRLPRPRPRPQADPRP, for which the “shrunken log2 fold change” value amounted to 0.639.
The figure for RRIRFRPPRLPRPRPRPWMMPRP is -0.897.
For RRIRRRPPRLPRPRPRPPDHPRP the value was 0.762; for RRIRCRPPRLPRPRPRPKSNPRP, -0.274; for RRIRWRPPRLPRPRPRPEWLPRP, 0.803.
For RRIRHRPPRLPRPRPRPGLIPRP the value was -0.234; for RRIRHRPPRLPRPRPRPRFKPRP, -0.153.
Consider RRIRSRPPRLPRPRPRPCGYPRP, for which the “shrunken log2 fold change” value was -0.00214.
The figure for RRIRFRPPRLPRPRPRPGKNPRP is 0.0341.
For RRIRFRPPRLPRPRPRPYYQPRP the value was -0.203; for RRIRNRPPRLPRPRPRPWEDPRP, -0.0966.
As for RRIRMRPPRLPRPRPRPYDFPRP, the “shrunken log2 fold change” value was -0.00149.
For RRIRSRPPRLPRPRPRPSIDPRP the value was -0.536.
For RRIRWRPPRLPRPRPRPFEKPRP, the “shrunken log2 fold change” value came out at 0.0683.
As for RRIRARPPRLPRPRPRPGIYPRP, the “shrunken log2 fold change” value was -0.225.
Take RRIRTRPPRLPRPRPRPGDIPRP: the “shrunken log2 fold change” value is -0.119.
The figure for RRIRSRPPRLPRPRPRPFNVPRP is -0.343; for RRIRPRPPRLPRPRPRPPLKPRP it is 0.441.
In the case of RRIRSRPPRLPRPRPRPCYCPRP, the “shrunken log2 fold change” value is -0.215.
The figure for RRIRYRPPRLPRPRPRPTSFPRP is -0.255; for RRIRWRPPRLPRPRPRPWDSPRP it is -0.287.
For RRIRLRPPRLPRPRPRPGDTPRP the value was -0.238.
For RRIRDRPPRLPRPRPRPVDEPRP the value was -0.023.
With RRIRGRPPRLPRPRPRPCMPPRP, the “shrunken log2 fold change” value is -0.152.
The figure for RRIRVRPPRLPRPRPRPIWHPRP is -0.164; for RRIRVRPPRLPRPRPRPWKPPRP it is 0.0596.
For RRIRPRPPRLPRPRPRPLFEPRP the value was 0.163.

Source of the values: the supplement of paper PMC9112550, “Optimization of the antimicrobial peptide Bac7 by deep mutational scanning” (BMC Biology, 2022).
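Also: peptides expressed intracellularly from a pBAD plasmid library in pooled LB shake-flask culture, induced with 0.3% L-arabinose, DNA abundance read by NGS, three biological replicates, DESeq2 with apeglm shrinkage.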
